The data set concerns Escherichia coli TOP10. Put plainly: shrunken log2 fold change of peptide-encoding DNA abundance (4.5 h post-induction vs induction); higher = less antimicrobial activity (less host growth inhibition). The settings on record: time post-induction: 4.5 h; library: site-saturation at positions 5, 18, 19, 20.
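Note: peptides expressed intracellularly from a pBAD plasmid library in pooled LB shake-flask culture, induced with 0.3% L-arabinose, DNA abundance read by NGS, three biological replicates, DESeq2 with apeglm shrinkage.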

Turning to RRIRDRPPRLPRPRPRPYQRPRP, the “shrunken log2 fold change” value turned out to be 0.058.
The value for RRIRFRPPRLPRPRPRPNMSPRP was -0.54; that for RRIRFRPPRLPRPRPRPTSFPRP was 0.0329.
The value for RRIRHRPPRLPRPRPRPKSDPRP was -0.255.
The value for RRIRCRPPRLPRPRPRPYMDPRP was 0.0215; that for RRIRTRPPRLPRPRPRPCRHPRP was -0.101.
With RRIRWRPPRLPRPRPRPKDTPRP, the “shrunken log2 fold change” value was -0.145.
Take RRIRHRPPRLPRPRPRPHDSPRP: the “shrunken log2 fold change” value was -0.03.
The value for RRIRRRPPRLPRPRPRPSAVPRP was 0.368; that for RRIRERPPRLPRPRPRPILNPRP was 2.73; that for RRIRARPPRLPRPRPRPAPCPRP was 0.638.
The value for RRIRERPPRLPRPRPRPSKKPRP was -0.645; that for RRIRQRPPRLPRPRPRPGNDPRP was -0.299.
The figure for RRIRPRPPRLPRPRPRPVDNPRP is 0.0523.
Consider RRIRQRPPRLPRPRPRPLEQPRP, for which the “shrunken log2 fold change” value was found to be 0.0165.
The value for RRIRKRPPRLPRPRPRPTKFPRP was 0.663; that for RRIRIRPPRLPRPRPRPGMGPRP was 0.132; that for RRIRYRPPRLPRPRPRPPSCPRP was -0.00175.
The figure for RRIRRRPPRLPRPRPRPHQPPRP is 0.557; for RRIRQRPPRLPRPRPRPQNIPRP it is -0.882; for RRIRIRPPRLPRPRPRPPPWPRP it is 0.508.
The figure for RRIRARPPRLPRPRPRPFYRPRP is -0.178; for RRIRMRPPRLPRPRPRPDVKPRP it is 0.343.
For the sequence RRIRDRPPRLPRPRPRPTVIPRP, the “shrunken log2 fold change” value was -0.118.
The figure for RRIRTRPPRLPRPRPRPIIHPRP is -0.937; for RRIRKRPPRLPRPRPRPEMAPRP it is 1.73; for RRIRIRPPRLPRPRPRPIQKPRP it is 0.00853.
The value for RRIRGRPPRLPRPRPRPGPMPRP was 0.966; that for RRIRGRPPRLPRPRPRPCNKPRP was -0.442.
Consider RRIRSRPPRLPRPRPRPWYGPRP, for which the “shrunken log2 fold change” value is -0.933.
The figure for RRIRIRPPRLPRPRPRPDANPRP is 0.219; for RRIRWRPPRLPRPRPRPDAQPRP it is 1.48.
Take RRIRIRPPRLPRPRPRPWLMPRP: the “shrunken log2 fold change” value was -0.202.
The figure for RRIRMRPPRLPRPRPRPRPQPRP is 1.13.
The value for RRIRVRPPRLPRPRPRPRTKPRP was 0.0796; that for RRIRNRPPRLPRPRPRPVDFPRP was -0.262; that for RRIRARPPRLPRPRPRPNPEPRP was 0.0539.
The value for RRIRHRPPRLPRPRPRPGTRPRP was -0.13.
In the case of RRIRRRPPRLPRPRPRPPYTPRP, the “shrunken log2 fold change” value worked out at 0.00247.
The value for RRIRDRPPRLPRPRPRPDVNPRP was 0.209; that for RRIRFRPPRLPRPRPRPHCNPRP was -0.548.
The value for RRIRVRPPRLPRPRPRPLLPPRP was 0.328; that for RRIRDRPPRLPRPRPRPNAYPRP was -0.043.
For the sequence RRIRMRPPRLPRPRPRPKCDPRP, the “shrunken log2 fold change” value worked out at 0.318.
The figure for RRIRGRPPRLPRPRPRPRIDPRP is 0.731; for RRIRGRPPRLPRPRPRPIIDPRP it is 0.859.
The figure for RRIRGRPPRLPRPRPRPTTDPRP is 0.918.
The value for RRIRSRPPRLPRPRPRPPPDPRP was 0.848.
RRIRYRPPRLPRPRPRPGNQPRP: the “shrunken log2 fold change” value is -0.252.
The value for RRIRCRPPRLPRPRPRPKNTPRP was -0.339.

The record behind these values is the supplement of paper PMC9112550, “Optimization of the antimicrobial peptide Bac7 by deep mutational scanning” (BMC Biology, 2022).
